From the supplement of paper PMC9170038

Test system: MS2 coat protein
Experiment: apparent KD of MS2 coat protein; higher = weaker reporter binding
Settings: Eterna round: R107
Method: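 RNA-MaP round R107: designed RNA switches with theophylline, tryptophan, arginine or FMN aptamers are transcribed on-chip within common flanks. They are titrated with SNAP-549-labelled MS2 coat protein in RNA-MaP buffer (100 mM Tris pH 7.5, 80 mM KCl, 4 mM MgCl2), without ligand or with the indicated ligand. Median apparent KD per design.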

[1] = input ligand: theophylline 20 uM
[2] = input ligand: tryptophan 2.4 mM
[3] = input ligand: theophylline 2 mM

Sequence | apparent KD of MS2 coat protein (input ligand: arginine 13.2 mM) | apparent KD of MS2 coat protein [1] | apparent KD of MS2 coat protein [2] | apparent KD of MS2 coat protein (input ligand: none) | apparent KD of MS2 coat protein [3]
ACAUGAGGAUCACCCAUGUUCCUCUUUGAUACCAGUGAGUUGUUUCGCCCUUGGCAGCGAGUUUUUUUUUUUUUGUUUUGUUUGG [6.R] | 173 nM | 351 nM | 264 nM | – | –
ACCUGUACGAAAAGUGCAGGACACGGAAUACGAGGACCGGUACGGCCGCCACUCGGAAUAAACCUGAGGAUCACCCUGGUCCGUG [TrypAS 9 #AlternativeMS2 #Zipper #StaticStem] | 26.8 nM | 39.1 nM | 32.2 nM | 25.1 nM | 34.4 nM
ACGUCACGUUUACUCGUGGUUUCGAUCGAUACCAGUAGCGAGAGUUACCCUUGGCAGCGACAUGAGGAUCACCCAUGUACGAAGA [XTheo A #25] | 10.8 nM | 14.5 nM | 12 nM | – | –
ACGUCCGGGUUAAUCGUGGGCAUGGUCGAUACCAGUAUUUUAAUCUACCCUUGGCAGCGACAUGAGGAUCACCCAUGUGCGAUGA [XTheo A #17] | 15.5 nM | 22.8 nM | 17 nM | – | –
ACGUCGCAUAGGAAAACUAUGUGACGAAAUCGAGGACCGGUACGGCCGCCACUCGUCCUCAACAUGAGGAUCACCCAUGUAAUAA [Mat - Exclusion - Trytophan A - D7] | 19.3 nM | 23.3 nM | – | – | 22.3 nM
ACUAGUUGUGCAGAUACCAGACACGAGGAUCACCCGUGUUUGGGAUGUUCGCAUCUUCCUGUCCCUUGGCAGCUGUACAUCUAGA [Omei Theo B Exc v8] | 15.8 nM | 23.5 nM | 17 nM | 15.1 nM | 221 nM
ACUGGAGGUGGAAGGAGCGGGAGACAUGAGCAUCACAUGAGGAUCACCCAUGUAGGAUCAUCCCAGGUAGGUCGCCAUGUCGAAA [rtfemullin] | 120 nM | 292 nM | 189 nM | 276 nM | 431 nM
AGAAUAACACAUGAGGAUCACCCAUGUGAUACCAGCUAGGAAACUAGCCCUUGGCAGCACAUAAGGUGAUCCAGCUGCCAAGAAU [(M1)-(M2)-(T1)-(T2)-(M)'-(T)'_Design1_2/19/17] | 65.2 nM | 175 nM | 102 nM | – | –
AGACACAUGAGGAUCACCCAUGUACACGAGCGAGGACCGGUACGGCCGCCACUCGUCCAAGCAACUAAUGAGACUCGUAAGAUGG [theeternabot_sameState_MS2_Trp_A_5] | 17.1 nM | 31.6 nM | – | – | 23.4 nM
AGACAUGAGGAUCACCCAUGUAGCAUGGAUACCAGAUCCAGAUUUAUCCCUUGGCAGCUGUGGUACAGUGAUGGAUUGCUCCUAG [Exclusion - Theophylline A (Freestyle 8)] | 46.3 nM | 93.6 nM | 61.9 nM | – | –
AGACAUGAGGAUCACCCAUGUAGCAUGGAUACCAGAUGUAGAUUUAUCCCUUGGCAGCUGUGGUAAAGUGAUGCAUUGCUCCUAG [Exclusion - Theophylline A (Freestyle 5)] | 28.5 nM | 50.1 nM | 34 nM | – | –
AGACUUCGCAUAGGAAAACUAUGUGAAGUCCGAGGACCGGUACGGCCGCCACUCGUCCUCAACAUGAGGAUCACCCAUGUAAUAA [#OpenEnded #CuTurnoff #Tail] | 21.1 nM | 26 nM | – | – | 23.5 nM
AGAGCAUUGACGGCCGCCACUCAUGUCACAUGAGGAUCACCCAUGUGAUGGGUAAUUGCCCGGUUGAGGACCGGGUCAAUGCUCA [Omei Tryp SS B v4] | 5.88 nM | 11.3 nM | 9.74 nM | 8.32 nM | 10.1 nM
AGAGCAUUGACGGCCGCCACUCAUGUCACAUGAGGAUCACCCAUGUGAUGGGUGAUAGCCCGGUUGAGGACCGGGUCAAUGCUCA [Omei Tryp SS B v1] | 18.4 nM | 25.3 nM | – | – | 20.4 nM
AGAGCAUUGACGGCCGCCACUCGUGUCACAUGAGGAUCACCCAUGUGAUGGGUGAUAGCCCGGUUGAGGACCGGGUCAAUGCUCA [Omei Tryp SS B v7] | 13.1 nM | 16.8 nM | – | – | 16.2 nM
AGAGUCAGACAAAAGUCUGGCUCAGCCGAAGGAGCGUCCGAAAGGACAGGUAGGUCGCGGUUACAUGAGGAUCACCCAUGUUCCU [ArgAS 7 #OpenEnded] | 66.8 nM | 177 nM | 145 nM | 136 nM | 184 nM
AGAUGCCACUGUGGAUAGCACGAUGCCGAUACCAGCUAGGAAACUAGCCCUUGGCAGCGGUACAUGAGGAUCACCCAUGUAUCCU [EThA NP+V+V2 #9] | 12.2 nM | 18.3 nM | 12.9 nM | – | –

Sequence | apparent KD of MS2 coat protein (input ligand: arginine 13.2 mM) | apparent KD of MS2 coat protein [1] | apparent KD of MS2 coat protein [2] | apparent KD of MS2 coat protein (input ligand: none) | apparent KD of MS2 coat protein [3]
AGAUUCGACACGGCCGCCACUUUCAGUGGCUGGUGUCAUGGUGCACAUGAGGAUCACCCAUGUGGAAGGACCGGGUGUUGAGUCU [XTryp B #26] | 12.3 nM | 21.8 nM | – | – | 17.2 nM
AGCAACAAGUCGGCCGCCACUCAAUAAACAUGAGGAUCACCCAUGUAAAUAACAUGAUAAUAAUAGAGGACCGGGACAGUUGCAU [JR_SSTryptoB_Sub015] | 13 nM | 17.1 nM | – | – | 15.1 nM
AGCACGGUGAUGGUAGCCGGACGCUAAGUACGAGGACCGGUACGGCCGCCACUCGGAGUCCUACGACAUGAGGAUCACCCAUGUA [Same State Trp A GF12] | 34.3 nM | 50 nM | 33.6 nM | 34.9 nM | 42.6 nM
AGCACUGUGACGGCCGCCACUACAUAAUAGGGUGGUCAGGUUCAUAUACAUGAGGAUCACCCAUGUAGGACCGGGUCUCAGUGCA [Omei Trp Exc B A v6] | 8.68 nM | 12.7 nM | 9.03 nM | 10.6 nM | 12.2 nM
AGCAUACAUUCUGAUACCAGAGACAUGAGGAUCACCCAUGUCCGAUCGUCCUGCCUCAGACUCCCUUGGCAGCAGGAUGUGUGCU [Exclusion Theophylline B GF6] | 13.1 nM | 17.6 nM | 13.8 nM | – | –
AGCCACUCGAGUGAUCCUCACGAGUGGCAACGAGGACCGGUACGGCCGCCACUCGAAUAACAUGAGGAUCACCCAUGUUUAUAAU [#01 Tryptophan A - Same State] | 51.1 nM | 176 nM | – | – | 258 nM
AGCCACUCGAGUGAUCCUCACGAGUGGCAACGAGGACCGGUACGGCCGCCACUCGAAUCAACAUGAGGAUCACCCAUGUAAUAAU [Brourdmod01] | 28.2 nM | 123 nM | 97.7 nM | 76.3 nM | 82.3 nM
AGCCAUGGAAACAUGGCGGCGGCAUGAGCGCGAGGACCGGUACGGCCGCCACUCGGGCGACAUGAGGAUCACCCAUGUUCCUCAU [ETA NP+V+V2 #22 Same Structure] | 145 nM | 312 nM | 422 nM | 289 nM | 451 nM
AGCCAUGGAAACAUGGCGGCGGCUUGGGCGCGAGGACCGGUACGGCCGCCACUCGGGCAACAUGAGGAUCACCCAUGUUCCUCAU [ETA NP+V+V2 #18] | 84.6 nM | 245 nM | 161 nM | 128 nM | 317 nM
AGCGACAUGCGUGAUACCAGCUACAUGAGGAUCACCCAUGUCAGCAGGGAACUGCUGUGUAGCCCUUGGCAGCACAGUGCAUGUC [Exclusion - Theophylline B (Freestyle 29)] | 13 nM | 12.3 nM | 10.2 nM | 10.8 nM | 23.1 nM
AGCGAUUUCGGAAGGAGCGGUACAUGAGGAUCACCCAUGUAUUCAAUCGUGAUCGGCGCGUGCCAGGUAGGUCGCCGAAGGCGUC [Veatat] | 12.4 nM | 14.9 nM | 11.9 nM | 9.95 nM | 10.9 nM
AGCGCAUCCGUAUAGGAUGCGCUCCAUGAAGGAGCGCGGGAAACCGCAGGUAGGUCGCGUGACAUGAGGAUCACCCAUGUGUAUU [#17 Same State - Arginine A] | 16.9 nM | 27.7 nM | 20.9 nM | 20 nM | 22.8 nM
AGCGGCUCGAAAGAGUCGCACUCAUGUGAAGGAGCGCGCGUAAGCGCAGGUAGGUCGCACAUGAGGAUCACCCAUGUACCUUCUA [MAT - Exclusion Arginine A - Mod of Eli - D21] | 68.5 nM | 206 nM | 118 nM | 235 nM | 262 nM
AGCUCGCAUCCUCUAGCGUCAAAGACGCGUCGAGGACCGGUACGGCCGCCACUCGACGUGAGGAUCACCCACGUCUAAGCGAGCA [TrypAX 10 #SwitchBubble #AlternativeMS2 #MS2Late #CuTurnoff] | 19.7 nM | 31.7 nM | 295 nM | 25.5 nM | 30.6 nM
AGCUUGUAGUCGGCCGCCACUAAUAGGGAUCCUAUCGAGGCGGGUAACAUGAGGAUCACCCAUGUUAGGACCGGGACAGCGAGGA [Cetian] | 10 nM | 15.4 nM | 10.8 nM | 16.6 nM | 11.6 nM
AGGAAUGUCACGGCCGCCACUGACGCUAAAAUGGGCUCGAGCCGACAUGAGGAUCACCCAUGUUCCAGGACCGGGUGAAUCCUGG [theeternabot_sameState_MS2_Trp_B_40] | 102 nM | 154 nM | – | – | 299 nM
AGGGACAUGAGGAUCACCCAUGUUGAAACUCGAGGACCGGUACGGCCGCCACUCGUAUAAUCGAUGUCCAUUUGGGAUUCCGGCU [theeternabot_sameState_MS2_Trp_A_17] | 21.4 nM | 32.8 nM | – | – | 39 nM
